# Measured values as given in patent US20210017277A1 (US Dept. of Health and Human Services, published 2021).
# B1: CD33Hu195-CD28Z CAR (other)
# chain: QVQLVQSGAEVKKPGSSVKVSCKASGYTFTDYNMHWVRQAPGQGLEWIGYIYPYNGGTGYNQKFKSKATITADESTNTAYMELSSLRSEDTAVYYCARGRPAMDYWGQGTLVTVSSGGGGSGGGGSGGGGSDIQMTQSPSSLSASVGDRVTITCRASESVDNYGISFMNWFQQKPGKAPKLLIYAASNQGSGVPSRFSGSGSGTDFTLTISSLQPDDFATYYCQQSKEVPWTFGQGTKVEIKSGAAAIEVMYPPPYLDNEKSNGTIIHVKGKHLCPSPLFPGPSKPFWVLVVVGGVLACYSLLVTVAFIIFWVRSKRSRLLHSDYMNMTPRRPGPTRKHYQPYAPPRDFAAYRSRVKFSRSADAPAYQQGQNQLYNELNLGRREEYDVLDKRRGRDPEMGGKPRRKNPQEGLYNELQKDKMAEAYSEIGMKGERRRGKGHDGLYQGLSTATKDTYDALHMQALPPR
# notes: CAR on the surface of transduced human T cells; also called CD33.2-28z; CD33.2-CD28z
# Molecular target: T1, Biotinylated Human Siglec-3/CD33 Protein, Avi Tag (Acro Biosystems) (human, UniProt P20138 18-259, biotinylated (Avi Tag))
# T1 construct: Bought reagent; also called biotinalated Siglec-3; not shown: Avi Tag
# T1 sequence (P20138 18-259 limits assumed): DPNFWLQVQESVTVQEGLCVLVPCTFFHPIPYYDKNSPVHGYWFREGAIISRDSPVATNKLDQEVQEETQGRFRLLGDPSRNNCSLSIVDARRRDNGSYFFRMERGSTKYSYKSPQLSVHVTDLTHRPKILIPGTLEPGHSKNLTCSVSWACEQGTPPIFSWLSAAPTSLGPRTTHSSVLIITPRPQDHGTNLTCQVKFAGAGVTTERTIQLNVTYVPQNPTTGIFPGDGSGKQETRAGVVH
# Assay: flow cytometry: CAR-transduced T cells stained with biotinylated human Siglec-3/CD33 protein, then Streptavidin-PE
# Experimental: Surface expression of CD33 CAR-transduced T cells was determined by flow cytometry using either protein-L (Themo Fisher) or a Biotinylated Human Siglec-3/CD33 Protein (Acro Biosystems, Newark, Del., USA) followed by incubation with Streptavidin-PE (BioLegend, San Diego, Calif., USA). CD123 CAR expression were detected with protein-L. Expression of CD33, CD123 and other cell surface markers were detected using the following antibodies from eBioscience (Thermo Fisher): CD33, CD45, CD3, CD8a, CD4, CD10.
# For CD33 CAR detection with Biotinylated Human Siglec-3/CD33 Protein: CAR detection with: add 2 ul of Biotinylated Human Siglec-3/CD33 Protein, [Avi Tag (Avitag™) Acro Biosystems, Newark, Del., USA], incubate for 20 min, wash once and incubate with 0.5 μl of Streptavidin-PE, incubate for additional 10 min, wash once, subject for FACS analysis.
binder,measurement,value
B1,binding result,binds
